Measured values as given in the nanobody polyreactivity screen of Harvey et al. (2022).

Test: yeast display, Sf9 membrane polyspecificity reagent, FACS + sequencing; frameworks hold sequencing errors
Summary of the method: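 Synthetic nanobody libraries on Saccharomyces cerevisiae BJ5465 were galactose-induced for 36–48 hours, stained 1 hour at 4 °C with 10% biotinylated, detergent-solubilized Sf9 membrane reagent and enriched on streptavidin microbeads. FACS then separated cells into low and high (top ~1%) gates by anti-HA (expression) and streptavidin (reagent binding) fluorescence. Genes were colony-PCR amplified, MiSeq 2 × 250 sequenced and CDR-length filtered. A clone's polyreactivity label is that of its gate of origin.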

Sequence	polyreactivity (PSR sort gate)
QVQLVESVGGLVQAGGSLRLSCAASGSIFIANAIGWYRQAPGKERELVAAISWSGGRTYYADSVKGRFTISRDNAKNTVYLQMNSLKPEDTAVYYCAAVYGAYDSGRFLSFGNFDYWGQGTQVTVSS	high polyreactivity
QVQLVESGGGLVQAGGSLRLSCAASGRIFFYYAMGLYRQATGKERELVAAITDSVDSTYYADSVKGRFTISRDNAKNTVYFQMKSLKPEDTAVYYCATDVDWAYGYHYEYWGQGPQVTVSS	low polyreactivity
QVQLVESGGGLVQAGGSLRLSCAASGSIFFNTMGWYIQAPGKERELVAAISRSGGSTYYADSVKGRFTISRDNAKNTVYLQMNSLKPEDTAVYYCNALRWSQYTYSSRLGHFDSWGQGTQVTVSS	high polyreactivity
QVQLVESVGGLVQGGGSLRLSCAASGINFYRYALGWYRQAPGKERELVAAINRSGDSTYYADSVKGRFTISRDNAKNTVYLQMNSLKPEDTAVYSCAAQHSIYRNPGLDDYWGQGNQVTVSS	high polyreactivity
QVQLVESGGGLVQAGGRLRLSCAASGSTFQFYAMGWYRQAPGKERELVAAITSSGSSTYYADSVKGRFTISRDNAKNTVYLQMNSLKPEDTAVYYCAARYYGYSVSYYYWGQGTQVTVSS	high polyreactivity
QVQLVESGGGLVQAGGSLRLSCAASGITLYYYTMGWYRQAPGKERELVAAISGSGGSTYYADSVKGRFTISRDNAKNTVYLQMNSLKPEDTAVYYCNTARSLKNHFYKYDYWGHGTQVTVSS	high polyreactivity
QVQIVESGGGLVQAGGSLRLSCAASGRTFRENAMGWYRQAPGKERELVAAAISSGDGTNYADSVKGRFTISRDYAKNTVYLQMNSLQPEDTAVYYCAADGPRDSYDYWGQGTQVTVSS	low polyreactivity
QGKRVESGRGLVQAGGILRLSCAASGRTFYYYAMGWYRQSPGKERELVASITWSGGSTYYADSVKGRFTISRDNAKNTVYLQMNSLKPEDTAVYYCAARFVYYGVDYWGQGTQVTGSS	high polyreactivity
QVQLVESGGGLVQAGGSLRLSCAASGRIFGSNPMGWYRQAPGKERELVAAISSGGSTSYADSVKGRFTISRDNAKKTVYLQMNSLKPEDTAVYYCAADRFAFYGRYRGPYYYWGQGTQVTVSS	high polyreactivity
QVQLVESGGGLVQAGGSLRLSCAASGRTFYRNAMGWYRQAPGKERELVAAISNGGSTNYADSVKGRFTISRDNAKNTVYLQMNSLKPEDTAVYYCAKAVIRWRGSGQHGYFWYDYLGQGTQVTVSS	high polyreactivity
QVQLVESGGGLVQEGGSLRLICAASGSTFYDYAMGWYRQAPGKERELVAAINWSSDTTYYADSVKGRFTISRDNAKNTVYLQMNSMKPEDTAVYYCATDSAYRGYDYWGQGTQVTVSS	low polyreactivity
QVQLVESGGGLVQAGGSLRLSCAASGSTFYGYAMGWNRQAPGKERELVADIDSIAGSTYYADSVKGRFTISRDNAKNTVYLQMNSLKPEDTAVYYCAARRFDTALVLYDYWGQGTQVTVSS	low polyreactivity
QVQLVESGGGLVQAGGSLRLSCAASGSIFSGNEMAWYRQAPGKERELVAAISSNGGRTYYADSVKGRFTISRDNEKNTVYLQMNSLKPEDTAVDYCAADSGKRRYGYYYWGQATQVTVSS	high polyreactivity
QVQLVESGGGLVQAGGSLRLSCAASGRIFIAYAMGWYRKAPAKERELVAAITDDGGTNYADSVKGRFTISRDNAKNTVYLQMKSLKPEDTAVYYCAATYLIGYYYVWEYDYWGQGTQVTVSS	low polyreactivity
QVQLVESGGGLVQAGGSLRLSCAASGRIFDLYTMGWYRQAPGKERELVAAISSSGGSTYYADSVKGRFTISRDNARNTVYLQMNSLKPEDTAVYYCNADWYYAGYGYWGQGTQVTVSS	low polyreactivity
QVQLVESGGGLVQAGGSLRLSCAASGFNFSHNAMGWYRQAPGKERELVAAISGSGGRTYYADSVKGRFTISRDNAKNTVDLQMNSLKPEDTAVYYCNAGRWWRRGYGYWGQVTQVTVSS	high polyreactivity
QVQLVESGGGLVQAGGSLRLSCAASGRIFRVYTMGWYRQAPGKERQLVATISYRGGSTYYADSVKGRFTISRDNAKNTVFLQMNSLTPDDNAVYNCAARLPADPGKTPGTLRTLDYWGQGTQVTVSS	high polyreactivity
QDQLVESGGGLVQAGGSLRLSCAASGSTIDDYARGWYRQAPGKERELVAAITWTSTDTYADSVKGRFTISRDNAKNTVYLQMNCLKPEDTAVYYCATDFIWDTAVTGGPNDWEYDYWGQGTQVTVSS	low polyreactivity
QVQLVESGGGLVQAGGSLRLSCAASGRTFYSYTMGWYRQAPGKEREFVAAISSSGSSTYYADSVKGRFTISRDNAKYTVYLQMNSLKPEDTAVYYCAATRYRYPGYFRYDYWGQGTQVTVSS	high polyreactivity
QVQLVESGGGLVQAGGSLRLSCAASGFIFPTNTMGWYRQAPGKEREFVARITRSGTNTYYADSVKGRFTISRDNAKNTVYLQMNSLKAEDTAVYYCARRGTSSYRRYWLDSASNMDYWGQGTQVTVSS	high polyreactivity
QVQLVESGGGLVQAGGSLRLSCAASGLTFWGYAMGWYRQAPGKEREFVASISSGGGSTYYADSVKGRFTMSRDNAKNTVYLQMNSLKPEDTAVYYCNAYRTKYRNQYTYATFDYWGQGTQVTVSS	low polyreactivity
QVQLVESGGGLVQAGGSLRLSCAASGIILTPNAMGWYRQAPGTERELVAAIDWRDGITYYADSVKGRFTISRDNAKNTVYLQMNSLKPEDTAVYYCAATFSRGYDYWGQGTQVTVSS	high polyreactivity

Sequence	polyreactivity (PSR sort gate)
QVQHVESGRGLVPAGGSLRLSCAASGSTFNLNAMGWYRQAPGKERELVAAISWRGDSTSYADSVKGRFTISRDNAKNTVYLQMNSLKPEDTAVYFCATAHDSAFYRYWYVPSEYNYWGQGTQVTVSS	low polyreactivity
QVQLVESGGGLVQAGGSLRLSCAASGSTFPLNVMGWYRQAPGKERELVAAISSSGGRTYYADSVKGRFTISRDNAKNTVYLQMNSLKPEDTAVYYCNARWRKNLSGRVFRYDYWGQGTQVTVSS	high polyreactivity
HVQIVESGRGLVPAGGSLRLSCAASGFIFIRYSMGWSRQAPGKERELVAVISSGGGSTDYADSVKGRFTISRDYAKNTVFLQMISLKPEDTAVYYCAADFLPTYDPYYFWGQGTQVSVSS	low polyreactivity
QVKLVESGGGLVQAGGSLRLTCAASGRIFEDYVMGWYIKAPGKERELVAGISGSGGITYYADSVKGRFTISRDNAKNTVYLQMNSLKPEDTAVYYCATAAASHKYGYWGQGTQVTVSS	low polyreactivity
QVQLVESGGGLVQAGGSLRLSCAASGRTFGWNAMGWYRQAPGKERELVAAITRGGITNYADSVKGRFTISRDNAKNTVYLQMNSLKPEDTAVYYCNKKFYRGASRYYYWGQGTQVTVSS	high polyreactivity
QVQLVESGGGLVQAGGSLLLSCAASGSIFGGNAMGWSRQAPGKVRELVAAITSSGGSTYYADSVKGRFTISRDNAKNTVYLQMNSLKPEDTAVYYCNKLSWRKYLGYEYWGQGTQVTVSS	high polyreactivity
QVQLVESGGGLVQAGGSLRLSYAASGSTFHLYAMGWYRQAPGKERELVASINSGGSTYYADSVKGRFTISRDNAKNTVYLQMNSLKPEDTAVYYCAADAYSWWGRWERYPYTTMYYWGQGTQVTVSS	low polyreactivity
QVQLVESGGGLVQAGGSLRLSCAASGSTFGTYVMGWYRQAPGKERELVAAITYSGGSTYYADSVTGRFTISRDNAKNTVYLQMNSLKPEDTAVYYCNADVWSYWYKFDYWGQGTQVTVSS	high polyreactivity
QVQLVESGGGLVQAGGSLRLSCAASGSTSYNYVMGWYRQAPGKERELVAAISFTDGTTYYADSVKGRFTISRDNAKNTVYLQMNSLKPEDTAVYYCAAGYTGYTYTEMDYWGQVTQVTVSS	low polyreactivity
QVQLVESGGGLVQAGGSLRLSCAASGSIFKYYAMGWYRQAPGKERELVAAINSGGDTYYADSVKGRFTISRDNAKNTVYLQMNSLKPEDTAVYYCAAYGYAGYAHRDMDYWGQGSQVTVSS	low polyreactivity
QVQLVESGGGLVQAGGSLRLSCAASGFTFFIYVMGWYRQAPGKEREYVAAISSSGDSTYYADSVKGRFTISRDNAKNTVYLQMNSLIPEDTAVYYCNAGDKVSSYWYDYWGQGTQVTVSS	low polyreactivity
QVQLVESGGGLVQAGGSLRLSCAASGSIFYYNAMGWYRQAPGKERELVAAISSSGGSTYYADSVKGRFTISRDNAKNTVYLQMNSLKPEDTAVYYCAAKLRHWAHHTKYDYWGQGTQVSVSS	low polyreactivity
QVQHVESVGGLVQAGGSLRVSCAASGTIFTFYTMGRYRPAPGKERELVAAISQTGGRTYYGDSVKGRFTISRDNAKNTVYLQMNSLKPEDTAVYYCAASVGRYAGNYWGQGTQVTVSS	high polyreactivity
QVQLVESGGGLVQAGGSLRLSCAASGFIFTDNAMGRYRHAPRTERELVAAINLSGTRTYYADSVKGRFTISRDNAKNTVYLQMNSLKPEDTAVYYCNKSEDYTYDYWGQGTQVTVSS	low polyreactivity
QVQLVESGGGLVQAGGSLRLSCAASGSIFSTNGMGWYRQAPGKERELVAAISTGGRTYYADSVKGRFTISRDNAKNTVYLQMNSLKPEDTAVYYCAKRFGYRSTQILDYWGQGTQVTVSS	low polyreactivity
QVQLVESGGGLVQAGGSLRLSCAASGRIFRYYAMGWYRQAPGKERELVAAIRYRSGGTYYADSVKGRFTISRDNAKNTVYLQMNCLKPEDTAVYYCNADKRLRGHGYDYWGQGTQVTVSS	high polyreactivity
QVQLVESGGGLVQAGGSLRLSCAASGNIFVFYVMGWYRQAPGKERELVASISSTGNTYYADSVKGRFTISRDNAKNTVYLQMNSLKPEDTAVYYCAAEYYSIRYGPHSIEVYGMDYWGQGTQVTVSS	low polyreactivity
QVQLVESGGGFVQAGGSLRLSCAASGLSFNFNAMGWYRQAPGKERELVAAIDSGGDTNYADSVKGRFSISRDNEKNTVYLQMNSLKPEDTAVYYCNTDRYPYAFEYWGQGTQVTVSS	low polyreactivity
QDQHVESGGGLVQAGGSLRLSCAASGIIFWWYDMGWFRQAPGKERELVAAISTGSRTNYADSVKGRFTISRDNAKNTVYLQMNSLKPEDTAVYYCAGEWVGFSGYYGSGYEMDYWGQGTQVTVSS	low polyreactivity
PVQLVESGGGLVQAGGSLRLSCAASGSTFAYNAMGWYRQAPGKERELVAAISWSGGTTYYADSVKGRFTISPDNAKNPVYLQMNSLKPEDTAVYYCAADVYLNRRQRMYYWGQGTQVTVSS	high polyreactivity
QVQLVESGGGLVQAGGSLRLSCAASGSTFYNNAMGWYRQAPGKERESVAAITASGGRTYYADSVKGRFTISRDNAKNTVYLQMNSLKPEDTAVYYCAARGFDRYYWGQGTQVTVSS	high polyreactivity
